Data from paper PMC10741561.

B1: WT-Sx4-GST (C-terminally GST-tagged Syntaxin 4 cytosolic domain) [not stated] / His-SNAP23 (N-terminally His-tagged SNAP23) [not stated] (parent)
chain 1: MRDRTHELRQGDNISDDEDEVRVALVVHSGAARLGSPDDEFFQKVQTIRQTMAKLESKVRELEKQQVTILATPLPEESMKQGLQNLREEIKQLGREVRAQLKAIEPQKEEADENYNSVNTRMKKTQHGVLSQQFVELINKCNSMQSEYREKNVERIRRQLKITNAGMVSDEELEQMLDSGQSEVFVSNILKDTQVTRQALNEISARHSEIQQLERSIRELHEIFTFLATEVEMQGEMINRIEKNILSSADYVERGQEHVKIALENQKKARKKKV
chain 2: MDNLSPEEVQLRAHQVTDESLESTRRILGLAIESQDAGIKTITMLDEQGEQLNRIEEGMDQINKDMREAEKTLTELNKCCGLCICPCNRTKNFESGKNYKATWGDGGDNSPSNVVSKQPSRITNGQPQQTTGAASGGYIKRITNDAREDEMEENLTQVGSILGNLKNMALDMGNEIDAQNQQIQKITEKADTNKNRIDIANTRAKKLIDS

Variants of: B1
Assay: GST pull-down (glutathione sepharose), immunoblot, ImageJ quantification
Conditions: with His-SNAP23 (N-terminally His-tagged SNAP23); 30 min; 1–5 μg Sx4-GST variant on beads, excess His-SNAP23, 4 °C; read off a plot

response (relative amount bound)	Variant
0.77	chain 1 MRDRTHELRQGDNISDDEDEVRVALVVHSGAARLGSPDDEFFQKVQTIRQTMAKLESKVRELEKQQVTILATPLPEESMKQGLQNLREEIKQLGREVRAQLKAIEPQKEEADENYNSVNTRMKKTQHGVLSQQFVELINKCNSMQSEYREKNVERIRRQLKITNAGMVSDEEAAQMLDSGQSEVFVSNILKDTQVTRQALNEISARHSEIQQLERSIRELHEIFTFLATEVEMQGEMINRIEKNILSSADYVERGQEHVKIALENQKKARKKKV [chain 1 L173A E174A]

Same assay, conditions: with His-SNAP23 (N-terminally His-tagged SNAP23); 60 min; 1–5 μg Sx4-GST variant on beads, excess His-SNAP23, 4 °C; read off a plot

response (relative amount bound)	Variant
1.7	chain 1 MRDRTHELRQGDNISDDEDEVRVALVVHSGAARLGSPDDEFFQKVQTIRQTMAKLESKVRELEKQQVTILATPLPEESMKQGLQNLREEIKQLGREVRAQLKAIEPQKEEADENYNSVNTRMKKTQHGVLSQQFVELINKCNSMQSEYREKNVERIRRQLKITNAGMVSDEEAAQMLDSGQSEVFVSNILKDTQVTRQALNEISARHSEIQQLERSIRELHEIFTFLATEVEMQGEMINRIEKNILSSADYVERGQEHVKIALENQKKARKKKV [chain 1 L173A E174A]
